In patent publication US7407671B2, “Temperature controlled solute delivery system” (Boston Scientific Scimed, Inc., priority 1998, dated 2008):

Assay: Solute release from bonded HPC gel membranes (modified HPLC system)
Format: physicochemical
Experimental: Solute release tests were conducted in the same manner as for PNIPA gels, as described in Example 1. The solute release experiments were designed to model the actual conditions of catheter use, which entail therapeutic solute loading at room temperature (25° C.), insertion of the catheter into the patient at 37° C., and temperature induced enhanced solute release when the catheter is placed at a target location in the body. While the experimental design was generally successful in modeling the actual use of catheter, heat lost to the experimental apparatus tubing reduced the 37° C. test temperature to 33° C. Because the transition temperature of HPC is fairly sharp (in this case, 43° C.), the reduction of test temperature from 37° C. to 33° C. had little impact on the test results.
Solute release experiments were conducted under four constant temperature conditions and three step change conditions. […] Thus, test temperatures below and above the transition temperature of HPC (43° C.) were used. […]

B1: ovalbumin: ovalbumin (M.w. 45,000 Da), model protein for bioactive proteins such as urokinase (protein, UniProt P01012 2-386, looked up)
Ovalbumin: GSIGAASMEFCFDVFKELKVHHANENIFYCPIAIMSALAMVYLGAKDSTRTQINKVVRFDKLPGFGDSIEAQCGTSVNVHSSLRDILNQITKPNDVYSFSLASRLYAEERYPILPEYLQCVKELYRGGLEPINFQTAADQARELINSWVESQTNGIIRNVLQPSSVDSQTAMVLVNAIVFKGLWEKAFKDEDTQAMPFRVTEQESKPVQMMYQIGLFRVASMASEKMKILELPFASGTMSMLVLLPDEVSGLEQLESIINFEKLTEWTSSNVMEERKIKVYLPRMKMEEKYNLTSVLMAMGITDVFSSSANLSGISSAESLKISQAVHAAHAEINEAGREVVGSAEAGVDAASVSEEFRADHPFLFCIKHIATNAVLFFGRCVSP
- solute released before the temperature change (HPC gel membrane 0.66 mm, first two minutes at 24° C.): 11%
- solute released within the first 7 minutes of the test (HPC gel membrane 0.66 mm, isothermal 24° C.): about 30%
- solute released in the five minutes immediately after the temperature change (HPC gel membrane 0.66 mm, step 24° C. to 46° C.): 54%
- solute released within the first 7 minutes of the test (HPC gel membrane 0.66 mm, step 24° C. to 46° C. after about two minutes): about 65%
- ratio of the area of the convective pulse to the area of the isothermal release curve (triggered release from HPC gel): much greater for ovalbumin than for methyl orange or estradiol
